PMC5899157, “Directed evolution of broadly crossreactive chemokine-blocking antibodies efficacious in arthritis” (Nature Communications, 2018)

Experiments:
[1] = target: T1, biotinylated hCXCL8 (^NCXCL-G2-AviTag^C) (human, UniProt P10145, biotin on the defined lysine of the AviTag (BirA)); experiment: flow cytometry on cells; competition: biotinylated chemokine at its EC50 with varying antagonist (0.3 nM to 3 μM; 0.003 to 30 μM for SA157*) on HEK293 cells expressing CXCR1 or CXCR2; the antagonist and the chemokine; settings: both partners purified
T1 construct: human CXCL8, active form; Which processed form of CXCL8 (72 or 77 residues) was made is only in Supplementary Data 1; not shown: AviTag, C-terminal, kept; Fc (murine IgG2 CH2 and CH3), N-terminal, cleaved; His6, N-terminal, cleaved

[2] = target: T2, mCXCL2 displayed on the surface of yeast as N-terminal fusion of Aga2p (mouse, UniProt P10889); experiment: flow cytometry on cells; CXC chemokine displayed on yeast (CXCL-Aga2p) titrated with soluble SA-antibody fusions bearing His6, 10 pM to 20 μM, overnight at 4 °C, PBSA washes, anti-His6 detection, binding/display MFI; settings: one partner purified
T2 construct: murine CXCL2, active processed form; Construct CXCL-(G3)-c-myc-Aga2p; also called ^NCXCL-Aga2p^C; not shown: c-myc, C-terminal, kept; Aga2p, C-terminal, kept

[3] = target: T3, mCXCL5 displayed on the surface of yeast as N-terminal fusion of Aga2p (mouse, UniProt P50228); experiment: as above; settings: one partner purified
T3 construct: murine CXCL5, active processed form; Construct CXCL-(G3)-c-myc-Aga2p; also called ^NCXCL-Aga2p^C; not shown: c-myc, C-terminal, kept; Aga2p, C-terminal, kept

[4] = target: T4, wild-type hCXCL1 displayed on the surface of yeast as N-terminal fusion of Aga2p (human, UniProt P09341); experiment: as above; settings: one partner purified
T4 construct: human CXCL1, active processed form; Construct CXCL-(G3)-c-myc-Aga2p; also called hCXCL1^WT; ^NhCXCL1^WT-Aga2p^C; not shown: c-myc, C-terminal, kept; Aga2p, C-terminal, kept

[5] = target: T5, mCXCL3 displayed on the surface of yeast as N-terminal fusion of Aga2p (mouse, UniProt Q6W5C0); experiment: as above; settings: one partner purified
T5 construct: murine CXCL3, active processed form; Construct CXCL-(G3)-c-myc-Aga2p; also called ^NCXCL-Aga2p^C; not shown: c-myc, C-terminal, kept; Aga2p, C-terminal, kept

[6] = target: T6, mCXCL1 displayed on the surface of yeast as N-terminal fusion of Aga2p (mouse, UniProt P12850); experiment: as above; settings: one partner purified
T6 construct: murine CXCL1, active processed form; Construct CXCL-(G3)-c-myc-Aga2p; also called ^NCXCL-Aga2p^C; not shown: c-myc, C-terminal, kept; Aga2p, C-terminal, kept

[7] = target: T7, chemotactic factor C5a (Homo sapiens (assumed; species not …, UniProt P01031); experiment: flow cytometry on cells; polyreactivity test: scFv displayed on yeast, single concentration (2 μM) of soluble protein, detection with streptavidin or anti-His6; settings: one partner purified
T7 construct: C5a, the chemotactic fragment cut from complement C5; Detected with streptavidin or anti-His6

[8] = target: T8, CCL28 (human, UniProt Q9NRJ3); experiment: as above; settings: one partner purified
T8 construct: CC chemokine CCL28; Detected with streptavidin or anti-His6

[9] = target: T9, CCL22 (human, UniProt O00626); experiment: as above; settings: one partner purified
T9 construct: CC chemokine CCL22; Detected with streptavidin or anti-His6

[10] = target: T10, CCL20 (Homo sapiens (assumed; species not …, UniProt P78556); experiment: as above; settings: one partner purified
T10 construct: CC chemokine CCL20; Detected with streptavidin or anti-His6

[11] = target: T11, hCXCL1 fused to the N-terminus of mouse serum albumin (human, UniProt P09341); experiment: flow cytometry on cells; scFv displayed on yeast (Aga2p fusion) titrated with soluble CXCL-SA fusions bearing His6, 10 pM to 2 μM, overnight at 4 °C, PBSA washes, anti-His6 detection, binding/display MFI; settings: one partner purified
T11 construct: human CXCL1, active protein form; CXCL-SA fusions eluted as dimers to tetramers on SEC; also called ^NCXCL-SA^C; source: HEK293 (suspension-adapted), transient transfection, purified (Ni Sepharose excel, SEC); not shown: mouse serum albumin, C-terminal, kept; His6, C-terminal, kept

[12] = target: T12, mCXCL1 fused to the N-terminus of mouse serum albumin (mouse, UniProt P12850); experiment: as above; settings: one partner purified
T12 construct: murine CXCL1, active protein form; also called ^NCXCL-SA^C; source: HEK293 (suspension-adapted), transient transfection, purified (Ni Sepharose excel, SEC); not shown: mouse serum albumin, C-terminal, kept; His6, C-terminal, kept

B1: SA138, mouse serum albumin fused to the CK138 single-chain variable antibody fragment (scFv, V domains shown)
VH: EVQLVESDGGLVQPGGSLRLSCAASGFNLSYYGMHWVRQAPGKGLEWVAYIASYPGYTSYADSVKGRFTISADTSKNTAYLQMNSLRAEDTAVYYCARSGYSYSPYYSWFSAGMNYWGQGALVTVSS
VL: AIQMTRSPSSLSASVGDRVTITCRASQYHDGSAAWYQQKPGKAPKLLIYGASYLYSGVPSRFSGSRSGTDFTLTISSLQPEDFATYYCQQSSYSLITFGQGTKVEIK
notes: VL of CK138, as in m2; linker between VL and VH; the scFv was amplified from the pCT-CON vector; VH of CK138, as in m2; Construct SA-(G4S)3-scFv-G4S-His6; also called ^NSA-scFv^C; source: HEK293 (suspension-adapted), transient transfection, purified (Ni Sepharose excel, SEC); not shown: mouse serum albumin, N-terminal, kept; His6, C-terminal, kept
**Q.** Does B1 bind [1]?
**A.** binds

**Q.** Does B1 bind [2]?
**A.** binds

**Q.** Does B1 bind [3]?
**A.** binds

**Q.** What about the Kd [4] of the same binder?
**A.** ~100 nM

**Q.** Does B1 bind [5]?
**A.** binds

**Q.** Does B1 bind [6]?
**A.** binds

B2: SA157*, separate mouse serum albumin fusions of the VL and VH domains of CK157 mixed in equimolar amounts (other)
VH: EVQLVESGGGLVQPGGSLRLSCAASGSNPYYYGGTHWVRQAPGEELEWVASIGSYPGYTDYADSVKGRFTISADTSKNTAYLQMNSLRAEDTAVYYCARHYYWYDATDYWGQGTLVTVSS
VL: DIQMTQSPSSLSASVGDRVTITCRASQSYGGVAWYQQKPGKAPKLLIYSASYLYSGVPSRFSGSRSGTDFTLTISSLQPEDFATYYCQQPSHLITFGQGTEVEIK
notes: VL of CK157, as in m3; VH of CK157, as in m3; Constructs SA-(G4S)3-VL-G4S-His6 and SA-(G4S)3-VH-G4S-His6; not a single chain with a linker; also called ^NSA-VL^C and ^NSA-VH^C; not shown: mouse serum albumin, N-terminal, kept; His6, C-terminal, kept
**Q.** What does the source list for B2?
**A.** binding result [1]: binds; Kd [4]: ~1500 nM

B3: CK157 single-chain variable antibody fragment, displayed on yeast (scFv, V domains shown)
VH: B2 VH
VL: B2 VL
notes: VL of CK157 (CK2 lineage, made by combinatorial site-directed mutagenesis); flexible linker between VL and VH; VH of CK157; Construct Aga2p-HA-(G4S)3-VL-linker-VH-c-myc; VL-VH orientation; not shown: Aga2p, N-terminal, kept; HA, N-terminal, kept; c-myc, C-terminal, kept
**Q.** Does B3 bind [7]?
**A.** binds

**Q.** Does B3 bind [8]?
**A.** binds

**Q.** Does B3 bind [9]?
**A.** binds

**Q.** Does B3 bind [10]?
**A.** binds

B4: CK129 single-chain variable antibody fragment, displayed on yeast (scFv, V domains shown)
VH: EVQLVESGGGLVQPGGSLRLSCAASGFNISSYGSMHWVRQAPGKGLEWVASIYPYSSSTYYADSVKGRFTISADTSKNTAYLQMNSLRAEDTAVYYCARGYGPWYAYSYFALDYWGQGTLVTVSS
VL: DIQMTQSPSPLSASVGDRVTITCRASQYGGYVAWYQQKPGKAPKLLIYGASLLYSGVPSRFSGGRSGTDFTLTISSLQPEDFATYYCQRGHALITFGQGTKVEIE
notes: VL of CK129 (CK4 lineage, synthetic library G); flexible linker between VL and VH; VH of CK129; Construct Aga2p-HA-(G4S)3-VL-linker-VH-c-myc; VL-VH orientation; not shown: Aga2p, N-terminal, kept; HA, N-terminal, kept; c-myc, C-terminal, kept
**Q.** Which Kd [11] does the source give for B4 here?
**A.** 0.79 nM

**Q.** And the Kd [12]?
**A.** 0.93 nM

B5: SA129, mouse serum albumin fused to the CK129 single-chain variable antibody fragment (scFv, V domains shown)
VH: B4 VH
VL: B4 VL
notes: VL of CK129, as in m1; linker between VL and VH; the scFv was amplified from the pCT-CON vector; VH of CK129, as in m1; Construct SA-(G4S)3-scFv-G4S-His6; also called ^NSA-scFv^C; source: HEK293 (suspension-adapted), transient transfection, purified (Ni Sepharose excel, SEC); not shown: mouse serum albumin, N-terminal, kept; His6, C-terminal, kept
**Q.** B5 was tested. Which Kd [4] did it give?
**A.** ~2.5 nM

**Q.** Does B5 bind [5]?
**A.** no binding (tested: up to 20 μM (methods))
